B1: RIG scaffold with mutation T57E (VHH, name in Kabat numbering)
VHH: DVQLQESGGGLVQAGGSLRLSCAASGRTGSTYDMGWFRQAPGKERESVAAINWDSAREYYASSVRGRFTISRDNAKKTVYLQMNSLKPEDTAVYTCGAGRIGRSVFNLRRESWVTWWGQGTQVTVSSAGGMDYKDDDDK
B2: llama anti-HCG monobody variable heavy chain (VHH), wild type (VHH)
VHH: DVQLQESGGGLVQAGGSLRLSCAASGRTGSTYDMGWFRQAPGKERESVAAINWDSARTYYASSVRGRFTISRDNAKKTVYLQMNSLKPEDTAVYTCGAGEGGTWDSWGQGTQVTVSSAGGMDYKDDDDK
notes: also called wild type anti-HCG scaffold; llama a-HCG
B3: RIG scaffold (VHH) (VHH)
VHH: DVQLQESGGGLVQAGGSLRLSCAASGRTGSTYDMGWFRQAPGKERESVAAINWDSARTYYASSVRGRFTISRDNAKKTVYLQMNSLKPEDTAVYTCGAGRIGRSVFNLRRESWVTWWGQGTQVTVSSAGGMDYKDDDDK
notes: also called RIG-Parent Scaffold; RIG VHH domain
B4: RLV scaffold (VHH) (VHH)
VHH: DVQLQESGGGLVQAGGSLRLSCAASGRTGSTYDMGWFRQAPGKERESVAAINWDSARTYYASSVRGRFTISRDNAKKTVYLQMNSLKPEDTAVYTCGAGRLVNGLSGLVSWEMPLAWGQGTQVTVSSAGGMDYKDDDDK
B5: VLK scaffold (VHH) (VHH)
VHH: DVQLQESGGGLVQAGGSLRLSCAASGRTGSTYDMGWFRQAPGKERESVAAINWDSARTYYASSVRGRFTISRDNAKKTVYLQMNSLKPEDTAVYTCGAGVLKRRGSSVAIFTRVQSWGQGTQVTVSSAGGMDYKDDDDK
B6: LLR scaffold (VHH) (VHH)
VHH: DVQLQESGGGLVQAGGSLRLSCAASGRTGSTYDMGWFRQAPGKERESVAAINWDSARTYYASSVRGRFTISRDNAKKTVYLQMNSLKPEDTAVYTCGAGLLRRGVNATPNWFGLVGWGQGTQVTVSSAGGMDYKDDDDK
B7: RIG scaffold alanine point mutant V100jA (VHH, name in Kabat numbering)
VHH: DVQLQESGGGLVQAGGSLRLSCAASGRTGSTYDMGWFRQAPGKERESVAAINWDSARTYYASSVRGRFTISRDNAKKTVYLQMNSLKPEDTAVYTCGAGRIGRSVFNLRRESWATWWGQGTQVTVSSAGGMDYKDDDDK
B8: RIG scaffold alanine point mutant S100A (VHH, name in Kabat numbering)
VHH: DVQLQESGGGLVQAGGSLRLSCAASGRTGSTYDMGWFRQAPGKERESVAAINWDSARTYYASSVRGRFTISRDNAKKTVYLQMNSLKPEDTAVYTCGAGRIGRAVFNLRRESWVTWWGQGTQVTVSSAGGMDYKDDDDK

One experiment has as its target T1, Protein A (UniProt P38507 37-477).
T1 construct: also called Protein A (Sigma)
The experiment is described as follows: Biacore. A general note: In SPR one partner is held on a chip, and binding of the other changes the refractive index at the surface.
In the case of B1, the binding result was “no binding”.

Another experiment concerns the target T1, Protein A. Nature of the experiment: BiaCore 3000, Protein A on CM5 chip, steady state fit. The procedure:
The affinity for Protein A for each of the individual clones was determined using a BiaCore 3000. Protein A was coated onto CM5 chip, as was BSA and VEGF. The latter two proteins were used as negative controls. Binding isotherms were calculated the steady state response differentials for a series of protein concentrations. The equilibrium dissociation constant (Kd) was determined by fitting the resulting curves (KaleidaGraph, Synergy Software) to the following equation: Ra=[…](Rmax−Rmin)/((1+C/Kd)ⁿ) Where “Ra” is the measured response differential, “Rmax” is the maximal response differential, “Rmin” the minimal response differential and “C” is the ligand concentration. Analysis of NNS Library
As to B2, the Kd turned out to be 1.6 µM.
Regarding B3, the Kd was 0.8 µM.
In the case of B4, the Kd is 1.8 µM.
For B5, the dissociation constant Kd is 0.9 µM.
Same read-out and setting: as for B6, the figure is 3.3 µM.

The next experiment has as its target T1, Protein A. The experiment is described as follows: BiaCore, Protein A on CM5 chip.
In turn, B3 yielded a Kd of 0.8 µM.
The molecule B7 yielded a Kd of 0.8 µM.
B8 had an equilibrium dissociation constant (Kd) of 0.6 µM.

One may read the Kd as the free concentration of one partner at which half of the binding sites on the other are occupied at equilibrium, for simple one-to-one binding.

Source of the values: patent publication US20050079574A1 (Genentech, published 2005).
